The data set deals with the molecule itself. Briefly: co-IP; 293T cells co-transfected; lysates in NP40 buffer (50 mM Tris-HCl pH 7.4, 150 mM NaCl, 5 mM EDTA, 1% NP40) precipitated with anti-Flag agarose at 4°C for 4-6 hours; immunoblot.

B1: Flag-tagged MAVS50 (natural protein, human, UniProt Q7Z434 142-540, looked up)
chain: MPVQETQAPESPGENSEQALQTLSPRAIPRNPDGGPLESSSDLAALSPLTSSGHQEQDTELGSTHTAGATSSLTPSRGPVSPSVSFQPLARSTPRASRLPGPTGSVVSTGTSFSSSSPGLASAGAAEGKQGAESDQAEPIICSSGAEAPANSLPSKVPTTLMPVNTVALKVPANPASVSTVPSKLPTSSKPPGAVPSNALTNPAPSKLPINSTRAGMVPSKVPTSMVLTKVSASTVPTDGSSRNEETPAAPTPAGATGGSSAWLDSSSENRGLGSELSKPGVLASQVDSPFSGCFEDLAISASTSLGMGPCHGPEENEYKSEGTFGIHVAENPSIQLLEGNPGPPADPDGGPRPQADRKFQEREVPCHRPSPGALWLQVAVTGVLVVTLLVVLYRRRLH
notes: MAVS (mitochondrion antiviral signaling adaptor), variant of ~50 kDa from internal translation initiation at codon 142; also called MAVS50-Flag; Flag-MAVS50
With B1, the binding result is given as “binds”.

The record behind these values is article PMC4519330, “An Internally Translated MAVS Variant Exposes Its Amino-terminal TRAF-Binding Motifs to Deregulate Interferon Induction” (PLoS Pathogens, 2015).
